In paper PMC11467389:

Key:
[1] = Western blot of endogenous PDK1 in ST2 cells; conditions: glycan lost; control: rhWnt3a alone
[2] = CHX chase of Flag-PDK1, Western blot (half-life); conditions: glycan lost; control: rhWnt3a alone
[3] = CHX chase, anti-Flag Western blot (half-life); conditions: glycan lost; control: Flag-PDK1 WT
[4] = MG132 6 h, Flag IP, ubiquitin blot; conditions: glycan lost; control: Flag-PDK1 WT

**Q.** For “PDK1 (pyruvate dehydrogenase kinase 1): DON”, which expression_or_secretion [1] is on record?
**A.** decreases

**Q.** For “PDK1 (pyruvate dehydrogenase kinase 1): OSMI”, which degradation_or_half_life [2] is on record?
**A.** decreases

**Q.** What does the source list for “PDK1 (pyruvate dehydrogenase kinase 1): S174A”?
**A.** degradation_or_half_life [3]: decreases; other: ubiquitination [4]: increases
